Laboratory results: the supplement of paper PMC7125110
± gives the standard error. Fewer inactive variants are shown than the library holds.

B1: glmS ribozyme (parent)
chain: AUAAAAGCGCCAGAACUACAGAAAUGUAGUUGACGAGGAGGAGGUUUAUCGAAUUUUCGGCGGAUGCCUCCAAA

Experiments:
Details in all cases: with glucosamine-6-phosphate
glucosamine-6-phosphate [1] = variants of: B1; assay: self-cleavage kobs at 40 uM GlcN6P; higher = faster cleavage; RNA array
Method in brief: (§1)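 Over ~14 h at 37 °C, tiles were imaged as glucosamine-6-phosphate (40 μM to 10 mM) in HEPES/KCl/Mg(OAc)2 buffer flowed across sequenced MiSeq chips. The chips carried barcoded ribozyme variants transcribed in situ by E. coli RNA polymerase and tracked with a hybridised Cy3 probe. After normalisation to baseline and to non-cleaving reference variants, one- or two-exponential decay fits of per-tile medians gave kobs. kcat and KM followed from weighted Michaelis–Menten fits across concentrations.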

glucosamine-6-phosphate [2] = variants of: B1; assay: self-cleavage kobs at 2500 uM GlcN6P; higher = faster cleavage; RNA array
Method in brief: as §1

glucosamine-6-phosphate [3] = variants of: B1; assay: self-cleavage kobs at 640 uM GlcN6P; higher = faster cleavage; RNA array
Method in brief: as §1

glucosamine-6-phosphate [4] = variants of: B1; assay: self-cleavage kobs at 10000 uM GlcN6P; higher = faster cleavage; RNA array
Method in brief: as §1

glucosamine-6-phosphate [5] = variants of: B1; assay: self-cleavage kobs at 160 uM GlcN6P; higher = faster cleavage; RNA array
Method in brief: as §1

Variant | self-cleavage kobs at 40 uM GlcN6P (glucosamine-6-phosphate [1]) [s⁻¹] | self-cleavage kobs at 2500 uM GlcN6P (glucosamine-6-phosphate [2]) [s⁻¹] | self-cleavage kobs at 640 uM GlcN6P (glucosamine-6-phosphate [3]) [s⁻¹] | self-cleavage kobs at 10000 uM GlcN6P (glucosamine-6-phosphate [4]) [s⁻¹] | self-cleavage kobs at 160 uM GlcN6P (glucosamine-6-phosphate [5]) [s⁻¹]
G40U G44A U57C C61G G66U | < 1e-05 | < 1e-05 | – | – | –
G41C A42G A53C G63A | < 1e-05 | < 1e-05 | < 1e-05 | – | –
G40U A42U C61A | < 1e-05 | – | – | < 1e-05 | –
A42U U56C G60U | < 1e-05 | – | – | – | –
G40U G41U U46A U47C G51U | < 1e-05 | – | – | – | –
A42U C58G | < 1e-05 | < 1e-05 | < 1e-05 | – | < 1e-05
A42G U47G C61U U69G | < 1e-05 | < 1e-05 | – | – | –
G41C C58G | < 1e-05 | – | < 1e-05 | < 1e-05 | < 1e-05
A42G G62U C68U | < 1e-05 | – | – | – | –
G40U G41C A48U | < 1e-05 | – | – | – | –
A42C U65G | < 1e-05 | – | < 1e-05 | – | < 1e-05
A42C U57A | < 1e-05 | < 1e-05 | < 1e-05 | < 1e-05 | –
A42U U69G | 0.000489 ± 5.4e-05 | 0.00369 ± 0.00061 | 0.00192 ± 0.00026 | 0.00738 ± 0.0015 | 0.000822 ± 0.00011
A42G U55A | 0.00136 ± 0.00015 | 0.0289 ± 0.0077 | 0.0283 ± 0.0091 | 0.0423 ± 0.013 | 0.00202 ± 0.00052
G41A U46C | < 1e-05 | – | – | 4.37e-05 ± 1.2e-05 | –
A42U G44A | < 1e-05 | < 1e-05 | < 1e-05 | – | < 1e-05
A42U G44U | < 1e-05 | < 1e-05 | < 1e-05 | – | < 1e-05
G41U G44A | < 1e-05 | < 1e-05 | < 1e-05 | < 1e-05 | < 1e-05
G41A U45C C70U | 9.09e-05 ± 2e-05 | 0.00174 ± 0.00052 | – | 0.00358 ± 0.00079 | –
G40U U45G C67U | < 1e-05 | – | – | 5.49e-05 ± 1.2e-05 | < 1e-05
G41C A53C C61A | < 1e-05 | – | – | < 1e-05 | –
G41C U57A | < 1e-05 | < 1e-05 | – | < 1e-05 | < 1e-05

Variant | self-cleavage kobs at 40 uM GlcN6P (glucosamine-6-phosphate [1]) [s⁻¹] | self-cleavage kobs at 2500 uM GlcN6P (glucosamine-6-phosphate [2]) [s⁻¹] | self-cleavage kobs at 640 uM GlcN6P (glucosamine-6-phosphate [3]) [s⁻¹] | self-cleavage kobs at 10000 uM GlcN6P (glucosamine-6-phosphate [4]) [s⁻¹] | self-cleavage kobs at 160 uM GlcN6P (glucosamine-6-phosphate [5]) [s⁻¹]
G41U C50G | < 1e-05 | – | < 1e-05 | < 1e-05 | –
G40U C71A | 0.000671 ± 6.2e-05 | 0.00906 ± 0.0019 | 0.00561 ± 0.00069 | 0.0484 ± 0.0079 | 0.00189 ± 0.00028
A42G U69C C71A | 0.000273 ± 0.00013 | 0.00647 ± 0.0028 | – | – | –
A42G G59A | < 1e-05 | 4.78e-05 ± 2e-05 | – | – | –
G41U G62C C70U | < 1e-05 | – | < 1e-05 | < 1e-05 | –
G41U U46A U49C C71G | < 1e-05 | – | – | – | –
G41A C50G C61U | < 1e-05 | < 1e-05 | < 1e-05 | < 1e-05 | < 1e-05
A42C U46G | < 1e-05 | – | – | – | < 1e-05
A42C U65G C70G C71G | < 1e-05 | – | – | – | –
G41A C68U | < 1e-05 | 1.85e-05 ± 7.6e-06 | – | 2.09e-05 ± 8.7e-06 | < 1e-05
A42C C71G | < 1e-05 | < 1e-05 | < 1e-05 | < 1e-05 | < 1e-05
G41A G62U | < 1e-05 | – | < 1e-05 | < 1e-05 | < 1e-05
A42C A48C | < 1e-05 | < 1e-05 | < 1e-05 | < 1e-05 | –
A42U G62C | < 1e-05 | – | < 1e-05 | < 1e-05 | –
G41A C58A | < 1e-05 | – | < 1e-05 | – | –
G41A C67U U69A | < 1e-05 | – | – | – | –
A42U G59U | < 1e-05 | – | < 1e-05 | < 1e-05 | < 1e-05
A42U G59C | < 1e-05 | < 1e-05 | < 1e-05 | < 1e-05 | < 1e-05
G43A A48U | < 1e-05 | < 1e-05 | < 1e-05 | < 1e-05 | < 1e-05
A42G C50A A64G C70G | < 1e-05 | – | – | – | –
G41C G59U | < 1e-05 | < 1e-05 | < 1e-05 | < 1e-05 | –
G40U G43U | < 1e-05 | – | < 1e-05 | < 1e-05 | < 1e-05

Variant | self-cleavage kobs at 40 uM GlcN6P (glucosamine-6-phosphate [1]) [s⁻¹] | self-cleavage kobs at 2500 uM GlcN6P (glucosamine-6-phosphate [2]) [s⁻¹] | self-cleavage kobs at 640 uM GlcN6P (glucosamine-6-phosphate [3]) [s⁻¹] | self-cleavage kobs at 10000 uM GlcN6P (glucosamine-6-phosphate [4]) [s⁻¹] | self-cleavage kobs at 160 uM GlcN6P (glucosamine-6-phosphate [5]) [s⁻¹]
G41A G59C C68A | < 1e-05 | < 1e-05 | – | < 1e-05 | –
G41C C50A G63U C67A | < 1e-05 | – | – | < 1e-05 | –
A42G G43C U45G A64U | < 1e-05 | – | – | < 1e-05 | –
G40U C61A G66A C70U | < 1e-05 | – | – | < 1e-05 | –
G43A A64U | < 1e-05 | < 1e-05 | < 1e-05 | < 1e-05 | < 1e-05
G43A A64U C67U | < 1e-05 | < 1e-05 | < 1e-05 | < 1e-05 | –
G40U U56A G62U C67G | < 1e-05 | < 1e-05 | < 1e-05 | – | < 1e-05
G41C A42C | < 1e-05 | < 1e-05 | < 1e-05 | – | < 1e-05
A42U A52U A64U G66U | < 1e-05 | – | – | – | –
G40U G41U U47G G62U G63U | < 1e-05 | – | – | < 1e-05 | –
G41U C70G | 0.00157 ± 0.00018 | 0.00944 ± 0.0019 | 0.00612 ± 0.00092 | 0.0513 ± 0.014 | 0.00262 ± 0.00038
G41A C61U C68A C70G C71A | < 1e-05 | – | – | – | –
A42G C67U | 0.000328 ± 4.2e-05 | 0.00245 ± 0.00057 | 0.00155 ± 0.00035 | 0.00807 ± 0.0016 | 0.00136 ± 0.00031
A42G C67A | 0.000813 ± 0.00013 | 0.00552 ± 0.0024 | 0.008 ± 0.0032 | 0.0213 ± 0.0053 | 0.00197 ± 0.00067
G40U G59C | < 1e-05 | – | < 1e-05 | – | –
G41U G44U A64U | < 1e-05 | – | – | < 1e-05 | –
G41A U49C C67U | < 1e-05 | – | – | – | –
G41C C70G | 0.0028 ± 0.00025 | 0.0672 ± 0.025 | 0.023 ± 0.0035 | – | 0.00588 ± 0.00089
G41U G43C | < 1e-05 | < 1e-05 | < 1e-05 | – | < 1e-05
A42U A48C | < 1e-05 | < 1e-05 | < 1e-05 | – | < 1e-05
G41A C50U G59A | < 1e-05 | – | – | < 1e-05 | –
A42G G60A C70G | < 1e-05 | – | – | – | –

Variant | self-cleavage kobs at 40 uM GlcN6P (glucosamine-6-phosphate [1]) [s⁻¹] | self-cleavage kobs at 2500 uM GlcN6P (glucosamine-6-phosphate [2]) [s⁻¹] | self-cleavage kobs at 640 uM GlcN6P (glucosamine-6-phosphate [3]) [s⁻¹] | self-cleavage kobs at 10000 uM GlcN6P (glucosamine-6-phosphate [4]) [s⁻¹] | self-cleavage kobs at 160 uM GlcN6P (glucosamine-6-phosphate [5]) [s⁻¹]
G43A C58G | < 1e-05 | < 1e-05 | < 1e-05 | < 1e-05 | < 1e-05
G41C G60A | < 1e-05 | – | < 1e-05 | < 1e-05 | –
G41C G60C | < 1e-05 | < 1e-05 | < 1e-05 | < 1e-05 | < 1e-05
G41C G60U | < 1e-05 | < 1e-05 | < 1e-05 | – | < 1e-05
A42G G44U | < 1e-05 | – | – | 3.58e-05 ± 1.2e-05 | < 1e-05
G41U U54A | 2.71e-05 ± 1.1e-05 | 0.000426 ± 7.7e-05 | 0.000174 ± 2.6e-05 | 0.000144 ± 1.7e-05 | 0.000104 ± 1.6e-05
G41C A48C | < 1e-05 | < 1e-05 | < 1e-05 | < 1e-05 | –
G41U G43U U57G G62A C68A | < 1e-05 | < 1e-05 | < 1e-05 | < 1e-05 | < 1e-05
G41A G63U | < 1e-05 | < 1e-05 | < 1e-05 | < 1e-05 | < 1e-05
A42U U46C G51C C61A | < 1e-05 | – | – | – | –
G41C U45A U57A C61G | < 1e-05 | – | – | < 1e-05 | –
G41U G51U A53G | < 1e-05 | – | – | < 1e-05 | –
G41A U56A | 4.59e-05 ± 9.3e-06 | 0.00173 ± 0.00036 | 0.000252 ± 2.8e-05 | 0.00063 ± 8.8e-05 | 8.06e-05 ± 1.3e-05
G40U A42G G51C A52G C70G | < 1e-05 | < 1e-05 | – | < 1e-05 | –
A42G U47G G63U | < 1e-05 | – | – | – | –
A42U C50U | < 1e-05 | < 1e-05 | < 1e-05 | < 1e-05 | < 1e-05
G41U U49C C61G | < 1e-05 | – | – | < 1e-05 | –
A42C G43C C50U C67U | < 1e-05 | – | – | – | –
G40U G41C A42G A52G U56G G60U | < 1e-05 | < 1e-05 | < 1e-05 | – | –
A42C G62C | < 1e-05 | – | – | < 1e-05 | < 1e-05
A42C U45A | < 1e-05 | < 1e-05 | < 1e-05 | – | –
